Measurements as given in publication PMC12142464, “High-light-inducible proteins control associations between chlorophyll synthase and the Photosystem II biogenesis factor Ycf39” (Plant Physiology, 2025).
Several values for one entry are separate records, joined by “and”; a condition that tells them apart may be missing. Identical values can stand only once.

T1: 3xFLAG-tagged chlorophyll synthase ChlG (Synechocystis sp. PCC 6803, UniProt Q55145 1-324)
T1 construct: Chlorophyll synthase ChlG, Synechocystis sp; PCC 6803, made instead of the native enzyme; Isolated complexes carry chlorophyll and carotenoids; also called f.ChlG; FLAG-tagged ChlG
T1 sequence (looked up): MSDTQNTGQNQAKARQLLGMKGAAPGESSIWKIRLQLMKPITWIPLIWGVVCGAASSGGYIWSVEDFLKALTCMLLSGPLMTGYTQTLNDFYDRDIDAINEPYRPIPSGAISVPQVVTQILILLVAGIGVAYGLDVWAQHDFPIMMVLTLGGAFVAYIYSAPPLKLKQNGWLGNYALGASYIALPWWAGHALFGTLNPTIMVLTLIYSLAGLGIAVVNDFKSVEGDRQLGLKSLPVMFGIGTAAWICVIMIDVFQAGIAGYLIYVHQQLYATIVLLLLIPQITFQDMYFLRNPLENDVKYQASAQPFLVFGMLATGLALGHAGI

B1: High-light-inducible protein D (native) (natural protein, UniProt P72932 1-57, looked up)
chain: MSEELQPNQTPVQEDPKFGFNNYAEKLNGRAAMVGFLLILVIEYFTNQGVLAWLGLR
notes: High-light-inducible protein HliD (6.5 kDa), Synechocystis sp; PCC 6803; also called HliD; ScpE; source: endogenous, Synechocystis solubilised membranes

Tests used:
Conditions in all cases: partners not purified
[1] = biological target: T1, 3xFLAG-tagged chlorophyll synthase ChlG; assay: affinity purification with mass spectrometry; f.ChlG anti-FLAG pulldown from f.chlG/ΔchlG cells, HL 16 h; quantitative MS with ^15N-labeled internal standard
[2] = biological target: T1, 3xFLAG-tagged chlorophyll synthase ChlG; assay: affinity purification with mass spectrometry; f.ChlG anti-FLAG pulldown from f.chlG/ΔchlG cells grown under NL; quantitative MS with ^15N-labeled internal standard
[3] = biological target: T1, 3xFLAG-tagged chlorophyll synthase ChlG; assay: co-IP; f.ChlG isolated with anti-FLAG resin from membranes solubilised with 1% n-dodecyl-β-D-maltoside and 1% glycol-diosgenin; eluate resolved by 2D CN (A8-35 amphipol)/SDS-PAGE, CBB stain; strains f.chlG/ΔchlG (HL 2 h), f.chlG/ΔchlG/ΔhliC (HL 2 h), f.chlG/ΔchlG/ΔhliC/Δycf39 (NL)
[4] = biological target: T1, 3xFLAG-tagged chlorophyll synthase ChlG; assay: affinity purification with mass spectrometry; f.ChlG anti-FLAG pulldown from f.chlG/ΔchlG/ΔhliC cells grown under NL; quantitative MS with ^15N-labeled internal standard
[5] = biological target: T1, 3xFLAG-tagged chlorophyll synthase ChlG; assay: affinity purification with mass spectrometry; f.ChlG anti-FLAG pulldown from f.chlG/ΔchlG/ΔhliC cells, HL 16 h; quantitative MS with ^15N-labeled internal standard
[6] = biological target: B1; assay: co-IP; f.ChlG isolated with anti-FLAG resin from membranes solubilised with 1% n-dodecyl-β-D-maltoside and 1% glycol-diosgenin; eluate resolved by 2D CN (A8-35 amphipol)/SDS-PAGE, CBB stain; strains f.chlG/ΔchlG (HL 2 h), f.chlG/ΔchlG/ΔhliC (HL 2 h), f.chlG/ΔchlG/ΔhliC/Δycf39 (NL)

Binder	stoichiometry N [1]	stoichiometry N [2]	stoichiometry N [3]	stoichiometry N [4]	stoichiometry N [5]	stoichiometry N [6]
B1	1.12 per 1 ChlG	1.54 per 1 ChlG	~1 HliD per f.ChlG (G-D2-G complex) and ~2 HliD per f.ChlG (G-D2 complex)	1.47 per 1 ChlG	1.51 per 1 ChlG	
MNNENSKFGFTAFAENWNGRLAMIGFSSALILELVSGQGVLHFFGIL (natural protein, UniProt P73563 1-47, looked up, High-light-inducible protein HliC (5.2 kDa), Synechocystis sp; PCC 6803; also called HliC; ScpB; source: endogenous, Synechocystis solubilised membranes (high light)) [High-light-inducible protein C (native)]						~1 HliC per HliD
